Reference: patent publication US20150330981A1 (published 2015)

Tests used:
[1] = target: T1, GST-PGC-1β (1-367 aa; GST-P5) (UniProt Q8VHJ7)
T1 sequence: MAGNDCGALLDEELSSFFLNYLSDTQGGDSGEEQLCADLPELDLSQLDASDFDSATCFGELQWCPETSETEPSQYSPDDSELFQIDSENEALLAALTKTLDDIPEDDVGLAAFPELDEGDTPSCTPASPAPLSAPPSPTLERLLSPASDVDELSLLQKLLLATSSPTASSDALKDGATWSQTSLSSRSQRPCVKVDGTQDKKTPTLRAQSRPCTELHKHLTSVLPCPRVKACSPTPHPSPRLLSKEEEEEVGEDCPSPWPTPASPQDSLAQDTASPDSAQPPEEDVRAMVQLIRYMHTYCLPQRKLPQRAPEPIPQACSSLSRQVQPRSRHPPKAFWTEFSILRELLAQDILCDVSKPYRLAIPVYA

[2] = target: T2, in vitro transcribed/translated PGC-1β (FLAG-PGC), Q8VHJ7
T2 chain: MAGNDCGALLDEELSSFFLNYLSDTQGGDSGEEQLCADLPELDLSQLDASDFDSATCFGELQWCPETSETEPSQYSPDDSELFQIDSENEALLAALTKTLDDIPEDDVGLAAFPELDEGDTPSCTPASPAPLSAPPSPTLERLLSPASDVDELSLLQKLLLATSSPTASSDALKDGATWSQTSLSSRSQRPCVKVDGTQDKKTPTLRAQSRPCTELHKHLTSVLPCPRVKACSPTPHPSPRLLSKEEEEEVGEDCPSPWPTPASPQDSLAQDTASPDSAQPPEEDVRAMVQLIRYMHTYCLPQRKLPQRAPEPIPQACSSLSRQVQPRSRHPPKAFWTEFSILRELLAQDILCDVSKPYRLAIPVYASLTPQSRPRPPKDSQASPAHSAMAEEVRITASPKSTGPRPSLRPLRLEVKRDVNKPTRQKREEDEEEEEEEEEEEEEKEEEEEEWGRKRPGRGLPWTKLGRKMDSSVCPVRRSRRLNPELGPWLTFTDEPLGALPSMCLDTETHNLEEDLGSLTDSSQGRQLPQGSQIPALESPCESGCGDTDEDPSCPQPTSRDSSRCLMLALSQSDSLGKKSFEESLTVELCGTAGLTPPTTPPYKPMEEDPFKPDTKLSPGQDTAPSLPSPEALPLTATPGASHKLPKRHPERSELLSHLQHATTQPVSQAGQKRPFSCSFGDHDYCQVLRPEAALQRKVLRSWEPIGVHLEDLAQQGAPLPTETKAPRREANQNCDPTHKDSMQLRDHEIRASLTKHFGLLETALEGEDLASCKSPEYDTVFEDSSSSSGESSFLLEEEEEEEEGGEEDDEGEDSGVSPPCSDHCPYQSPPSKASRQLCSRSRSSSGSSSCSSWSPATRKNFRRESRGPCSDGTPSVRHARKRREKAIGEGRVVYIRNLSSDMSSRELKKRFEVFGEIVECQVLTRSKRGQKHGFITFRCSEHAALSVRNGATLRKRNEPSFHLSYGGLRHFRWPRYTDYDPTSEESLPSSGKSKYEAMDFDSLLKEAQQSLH

[3] = target: T3, HA PGC-1β (full-length mouse PGC-1β with HA tag) (mouse, UniProt Q8VHJ7 1-1014); assay: cell-based or functional assay
T3 sequence (looked up): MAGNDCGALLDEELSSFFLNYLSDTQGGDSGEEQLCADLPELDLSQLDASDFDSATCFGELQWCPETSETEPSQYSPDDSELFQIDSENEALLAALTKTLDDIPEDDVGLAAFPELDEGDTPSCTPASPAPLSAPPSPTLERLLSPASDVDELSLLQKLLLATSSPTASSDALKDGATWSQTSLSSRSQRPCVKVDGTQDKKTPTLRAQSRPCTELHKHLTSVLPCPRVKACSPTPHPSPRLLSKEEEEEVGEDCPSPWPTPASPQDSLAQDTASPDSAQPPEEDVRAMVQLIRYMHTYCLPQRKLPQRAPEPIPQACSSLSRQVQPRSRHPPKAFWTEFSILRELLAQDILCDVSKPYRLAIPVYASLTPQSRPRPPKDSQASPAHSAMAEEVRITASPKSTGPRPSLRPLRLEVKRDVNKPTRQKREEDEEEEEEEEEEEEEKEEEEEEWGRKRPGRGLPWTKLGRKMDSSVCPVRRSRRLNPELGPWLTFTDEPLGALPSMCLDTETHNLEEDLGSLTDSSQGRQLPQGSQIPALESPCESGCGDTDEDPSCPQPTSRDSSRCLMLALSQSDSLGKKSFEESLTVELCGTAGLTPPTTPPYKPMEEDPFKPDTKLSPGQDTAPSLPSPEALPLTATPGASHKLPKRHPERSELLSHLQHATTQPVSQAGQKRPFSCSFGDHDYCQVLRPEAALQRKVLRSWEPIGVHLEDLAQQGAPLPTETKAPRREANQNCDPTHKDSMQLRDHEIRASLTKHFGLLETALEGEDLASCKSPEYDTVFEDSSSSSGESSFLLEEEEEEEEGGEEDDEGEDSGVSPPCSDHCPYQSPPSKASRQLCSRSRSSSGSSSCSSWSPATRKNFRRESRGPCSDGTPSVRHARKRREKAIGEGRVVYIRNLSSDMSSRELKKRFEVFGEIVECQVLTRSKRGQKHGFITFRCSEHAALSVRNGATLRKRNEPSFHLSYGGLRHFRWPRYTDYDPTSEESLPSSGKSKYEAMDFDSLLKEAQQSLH

[4] = target: T4, HA PGC-1β (full-length mouse PGC-1β with HA tag), Q8VHJ7
T4 chain: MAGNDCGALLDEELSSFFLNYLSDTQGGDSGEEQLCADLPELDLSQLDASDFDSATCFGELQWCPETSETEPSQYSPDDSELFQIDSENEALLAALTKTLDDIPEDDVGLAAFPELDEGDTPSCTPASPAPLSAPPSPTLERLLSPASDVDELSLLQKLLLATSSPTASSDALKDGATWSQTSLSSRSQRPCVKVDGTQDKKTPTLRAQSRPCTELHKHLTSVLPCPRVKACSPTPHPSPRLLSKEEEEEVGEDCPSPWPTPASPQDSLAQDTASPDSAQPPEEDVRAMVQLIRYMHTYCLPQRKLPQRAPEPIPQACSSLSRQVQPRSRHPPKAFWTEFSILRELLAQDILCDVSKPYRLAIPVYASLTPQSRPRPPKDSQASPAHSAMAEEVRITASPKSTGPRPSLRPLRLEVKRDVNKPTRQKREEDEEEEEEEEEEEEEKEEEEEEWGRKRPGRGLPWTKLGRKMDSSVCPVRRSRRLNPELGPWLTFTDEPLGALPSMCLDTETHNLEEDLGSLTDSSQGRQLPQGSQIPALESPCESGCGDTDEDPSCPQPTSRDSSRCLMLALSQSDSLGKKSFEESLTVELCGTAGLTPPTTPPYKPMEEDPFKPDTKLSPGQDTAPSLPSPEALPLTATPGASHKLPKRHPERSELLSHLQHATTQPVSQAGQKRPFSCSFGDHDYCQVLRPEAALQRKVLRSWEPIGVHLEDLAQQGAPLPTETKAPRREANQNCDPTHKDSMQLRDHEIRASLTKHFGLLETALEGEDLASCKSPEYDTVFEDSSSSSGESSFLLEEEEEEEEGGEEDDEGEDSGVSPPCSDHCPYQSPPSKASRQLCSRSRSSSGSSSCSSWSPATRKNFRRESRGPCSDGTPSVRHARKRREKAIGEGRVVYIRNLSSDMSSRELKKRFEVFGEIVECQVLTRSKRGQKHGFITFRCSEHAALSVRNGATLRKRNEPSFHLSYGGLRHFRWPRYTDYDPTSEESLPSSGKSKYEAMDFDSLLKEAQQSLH

[5] = target: T3, HA PGC-1β (full-length mouse PGC-1β …); assay: co-immunoprecipitation with anti-FLAG from HEK-293T extract, anti-HA Western blot
Method: Whether synoviolin and PGC-1β actually form a complex in in vivo was investigated. Specifically, a plasmid for expressing PGC-1β with HA tag (HA PGC-1β) and a plasmid for expressing synoviolin with FLAG tag (SYVN1/FLAG) or the modified synoviolin with FLAG tag (SYVN1ΔSyU/FLAG) were transfected in HEK-293T cells. Whole cell extract from the HEK-293T cells transfected with the expression plasmids was prepared to immunoprecipitate using anti-FLAG antibody. Proteins bound to the anti-FLAG antibody were eluted and separated by SDS-PAGE, and Western blot was performed using anti-HA antibody and the anti-FLAG antibody.

## MBP-SYVN1 ΔTM-His
[1]
  in vitro ubiquitination assay (E1-His, UbcH5C, HA-ubiquitin; GST capture, Western blot): synoviolin (SYVN1) has directly ubiquitinated PGC-1β

B1: modified synoviolin fused to GST (syno(236-338)) (protein)
chain: KVHTFPLFAIRPMYLAMRQFKKAVTDAIMSRRAIRNMNTLYPDATPEELQAMDNVCIICREEMVTGAKRLPCNHIFHTSCLRSWFQRQQTCPTCRMDVLRASL
[2]
  in vitro ubiquitination assay: polyubiquitinated PGC-1β was detected under the condition with the presence of all of ATP, PK-His-HA-Ub, E1-His, UBE2G2-His, and syno(236-338)

B2: modified synoviolin with FLAG tag (SYVN1ΔSyU/FLAG) (enzyme, UniProt Q86TM6 1-617, looked up)
chain: MFRTAVMMAASLALTGAVVAHAYYLKHQFYPTVVYLTKSSPSMAVLYIQAFVLVFLLGKVMGKVFFGQLRAAEMEHLLERSWYAVTETCLAFTVFRDDFSPRFVALFTLLLFLKCFHWLAEDRVDFMERSPNISWLFHCRIVSLMFLLGILDFLFVSHAYHSILTRGASVQLVFGFEYAILMTMVLTIFIKYVLHSVDLQSENPWDNKAVYMLYTELFTGFIKVLLYMAFMTIMINMNTLYPDATPEELQAMDNVCIICREEMVTGAKRLPCNHIFHTSCLRSWFQRQQTCPTCRMDVLRASLPAQSPPPPEPADQGPPPAPHPPPLLPQPPNFPQGLLPPFPPGMFPLWPPMGPFPPVPPPPSSGEAVAPPSTSAAALSRPSGAATTTAAGTSATAASATASGPGSGSAPEAGPAPGFPFPPPWMGMPLPPPFAFPPMPVPPAGFAGLTPEELRALEGHERQHLEARLQSLRNIHTLLDAAMLQINQYLTVLASLGPPRPATSVNSTEETATTVVAAASSTSIPSSEATTPTPGASPPAPEMERPPAPESVGTEEMPEDGEPDAAELRRRRLQKLESPVAH
notes: Deletion construct expressed in cells; also called synoviolin ΔSyU/FLAG; Synoviolin ASyU/FLAG; not shown: FLAG tag
[3]
  half-life of PGC-1β in cells (cycloheximide chase, Western blot): 3.6 h
[4]
  half-life of PGC-1β (cycloheximide chase, MEF Syno-/-): SYVN1 ΔSyU has not so promoted degradation of PGC-1β
[5]
  binding result: no binding
